Test results: patent publication US20200317768A1 (published 2020)

T1: cynomolgus monkey FcγRIIa2 extracellular domain, His-tagged (cynomolgus monkey)
T1 construct: also called cyno FcgRIIa2; cynoFcγRIIa2; not shown: His-tag added to the C-terminus
T1 chain: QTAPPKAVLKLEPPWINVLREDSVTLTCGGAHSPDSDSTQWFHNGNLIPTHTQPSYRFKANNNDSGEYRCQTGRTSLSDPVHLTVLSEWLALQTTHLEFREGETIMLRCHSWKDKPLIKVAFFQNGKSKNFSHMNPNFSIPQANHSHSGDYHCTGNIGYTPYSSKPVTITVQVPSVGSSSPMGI


Tests used:
[1] = target: T2, human FcγRIIIaV extracellular domain, His-tagged (human, UniProt P08637 17-208); assay: SPR; KD of SG1 divided by KD of the variant;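 note: relative to parent M103205H795-SG1 carrying the SG1 human heavy chain constant region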
T2 construct: also called human FcgRIIIaV; not shown: His-tag added to the C-terminus
Experimental: (§1) Regarding such interactions, KD values were calculated using the following 1:1 binding model described in BIACORE® T100 Software Handbook BR1006-48 Edition AE.
(§2) The behavior of interacting molecules according to the 1:1 binding model on BIACORE® can be described by Equation 1: Req=C·R max/(KD+C)+RI, wherein, Req is a plot of steady-state binding levels to analyte concentration. C is concentration, RI is bulk refractive index contribution in the sample, and Rmax is analyte binding capacity of the surface. When this equation is rearranged, KD can be expressed as Equation 2: KD=C·Rmax/(Req−RI)−C. KD can be calculated by substituting the values of Rmax, RI, and C into Equation 1 or Equation 2. From the current measurement conditions, RI=0, C=2 μmol/L can be used.
(§3) The resultant variants were expressed using M103202L889-SK1 as light chain and their affinity to human and cynoFcγRs were evaluated (Table 21).

[2] = target: T1, cynomolgus monkey FcγRIIa2 …; assay: SPR; KD of SG1 divided by KD of the variant;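 note: relative to parent M103205H795-SG1 carrying the SG1 human heavy chain constant region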
Experimental: as §1, §2, §3

T2 sequence (P08637 17-208 F176V): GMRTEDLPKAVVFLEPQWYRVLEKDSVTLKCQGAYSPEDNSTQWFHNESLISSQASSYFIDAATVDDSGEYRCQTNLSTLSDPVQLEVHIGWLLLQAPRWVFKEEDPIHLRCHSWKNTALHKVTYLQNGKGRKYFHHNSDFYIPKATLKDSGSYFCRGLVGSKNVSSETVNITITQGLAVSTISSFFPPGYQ

| KD fold (SG1 = 1) [1] [fold] | KD fold (SG1 = 1) [2] [fold] | Binder |
| --- | --- | --- |
| 0.16 | 3 | M103205H795-MY262/M103202L889-SK1 (antibody, human IgG1, kappa, copies: 2 + 2) heavy: QVTLKESGPVLVKPTETLTLTCTVSGIDLSHDDISWVRQAPGKGLEWVGIISYAGSTYYASWAKGRLTISKDTSKNQVVLTMTNMDPVDTATYYCARGVPAYSHGGDLWGQGTLVTVSSASTKGPSVFPLAPSSKSTSGGTAALGCLVKDYFPEPVTVSWNSGALTSGVHTFPAVLQSSGLYSLSSVVTVPSSSLGTQTYICNVNHKPSNTKVDKKVEPKSCDKTHTCPPCPAPELLVGPSVFLFPPKPKDTLMISRTPEVTCVVVDVSDEDPEVKFNWYVDGVEVHNAKTKPREEQYNSTYRVVSVLTVLHQDWLNGKEYKCKVSNKALPKPIEKTISKAKGQPREPQVYTLPPSREEMTKNQVSLTCLVKGFYPSDIAVEWESNGQPENNYKTTPPVLDSDGSFFLYSKLTVDKSRWQQGNVFSCSVMHEALHNHYTQKSLSLSP light: DIVMTQSPATLSLSPGERATLSCTSSQSVYHANWLSWFQQKPGQPPKLLIYWASTLAYGVPSRFSGSGSGTDFTLTISSLQPEDAATYYCAGGYGGGRYAFGQGTKVEIKRTVAAPSVFIFPPSDEQLKSGTASVVCLLNNFYPREAKVQWKVDNALQSGNSQESVTEQDSKDSTYSLSSTLTLSKADYEKHKVYACEVTHQGLSSPVTKSFNRGEC |
| 0.01 | 0.9 | M103205H795-MY264/M103202L889-SK1 (antibody, human IgG1, kappa, copies: 2 + 2) heavy: QVTLKESGPVLVKPTETLTLTCTVSGIDLSHDDISWVRQAPGKGLEWVGIISYAGSTYYASWAKGRLTISKDTSKNQVVLTMTNMDPVDTATYYCARGVPAYSHGGDLWGQGTLVTVSSASTKGPSVFPLAPSSKSTSGGTAALGCLVKDYFPEPVTVSWNSGALTSGVHTFPAVLQSSGLYSLSSVVTVPSSSLGTQTYICNVNHKPSNTKVDKKVEPKSCDKTHTCPPCPAPELLLGPSVFLFPPKPKDTLMISRTPEVTCVVVDVSDEDPEVKFNWYVDGVEVHNAKTKPREEQYNSTYRVVSVLTVLHQDWLNGKEYKCKVSNKALPKPIEKTISKAKGQPREPQVYTLPPSREEMTKNQVSLTCLVKGFYPSDIAVEWESNGQPENNYKTTPPVLDSDGSFFLYSKLTVDKSRWQQGNVFSCSVMHEALHNHYTQKSLSLSP light: DIVMTQSPATLSLSPGERATLSCTSSQSVYHANWLSWFQQKPGQPPKLLIYWASTLAYGVPSRFSGSGSGTDFTLTISSLQPEDAATYYCAGGYGGGRYAFGQGTKVEIKRTVAAPSVFIFPPSDEQLKSGTASVVCLLNNFYPREAKVQWKVDNALQSGNSQESVTEQDSKDSTYSLSSTLTLSKADYEKHKVYACEVTHQGLSSPVTKSFNRGEC |
| 0.05 | 2.6 | M103205H795-MY267/M103202L889-SK1 (antibody, human IgG1, kappa, copies: 2 + 2) heavy: QVTLKESGPVLVKPTETLTLTCTVSGIDLSHDDISWVRQAPGKGLEWVGIISYAGSTYYASWAKGRLTISKDTSKNQVVLTMTNMDPVDTATYYCARGVPAYSHGGDLWGQGTLVTVSSASTKGPSVFPLAPSSKSTSGGTAALGCLVKDYFPEPVTVSWNSGALTSGVHTFPAVLQSSGLYSLSSVVTVPSSSLGTQTYICNVNHKPSNTKVDKKVEPKSCDKTHTCPPCPAPELLIGPSVFLFPPKPKDTLMISRTPEVTCVVVDVSDEDPEVKFNWYVDGVEVHNAKTKPREEQYNSTYRVVSVLTVLHQDWLNGKEYKCKVSNKALPKPIEKTISKAKGQPREPQVYTLPPSREEMTKNQVSLTCLVKGFYPSDIAVEWESNGQPENNYKTTPPVLDSDGSFFLYSKLTVDKSRWQQGNVFSCSVMHEALHNHYTQKSLSLSP light: DIVMTQSPATLSLSPGERATLSCTSSQSVYHANWLSWFQQKPGQPPKLLIYWASTLAYGVPSRFSGSGSGTDFTLTISSLQPEDAATYYCAGGYGGGRYAFGQGTKVEIKRTVAAPSVFIFPPSDEQLKSGTASVVCLLNNFYPREAKVQWKVDNALQSGNSQESVTEQDSKDSTYSLSSTLTLSKADYEKHKVYACEVTHQGLSSPVTKSFNRGEC |
| 0.35 | 1.7 | M103205H795-MY263/M103202L889-SK1 (antibody, human IgG1, kappa, copies: 2 + 2) heavy: QVTLKESGPVLVKPTETLTLTCTVSGIDLSHDDISWVRQAPGKGLEWVGIISYAGSTYYASWAKGRLTISKDTSKNQVVLTMTNMDPVDTATYYCARGVPAYSHGGDLWGQGTLVTVSSASTKGPSVFPLAPSSKSTSGGTAALGCLVKDYFPEPVTVSWNSGALTSGVHTFPAVLQSSGLYSLSSVVTVPSSSLGTQTYICNVNHKPSNTKVDKKVEPKSCDKTHTCPPCPAPELLQGPSVFLFPPKPKDTLMISRTPEVTCVVVDVSDEDPEVKFNWYVDGVEVHNAKTKPREEQYNSTYRVVSVLTVLHQDWLNGKEYKCKVSNKALPKPIEKTISKAKGQPREPQVYTLPPSREEMTKNQVSLTCLVKGFYPSDIAVEWESNGQPENNYKTTPPVLDSDGSFFLYSKLTVDKSRWQQGNVFSCSVMHEALHNHYTQKSLSLSP light: DIVMTQSPATLSLSPGERATLSCTSSQSVYHANWLSWFQQKPGQPPKLLIYWASTLAYGVPSRFSGSGSGTDFTLTISSLQPEDAATYYCAGGYGGGRYAFGQGTKVEIKRTVAAPSVFIFPPSDEQLKSGTASVVCLLNNFYPREAKVQWKVDNALQSGNSQESVTEQDSKDSTYSLSSTLTLSKADYEKHKVYACEVTHQGLSSPVTKSFNRGEC |
| 0.15 | 2.7 | M103205H795-MY265/M103202L889-SK1 (antibody, human IgG1, kappa, copies: 2 + 2) heavy: QVTLKESGPVLVKPTETLTLTCTVSGIDLSHDDISWVRQAPGKGLEWVGIISYAGSTYYASWAKGRLTISKDTSKNQVVLTMTNMDPVDTATYYCARGVPAYSHGGDLWGQGTLVTVSSASTKGPSVFPLAPSSKSTSGGTAALGCLVKDYFPEPVTVSWNSGALTSGVHTFPAVLQSSGLYSLSSVVTVPSSSLGTQTYICNVNHKPSNTKVDKKVEPKSCDKTHTCPPCPAPELLTGPSVFLFPPKPKDTLMISRTPEVTCVVVDVSDEDPEVKFNWYVDGVEVHNAKTKPREEQYNSTYRVVSVLTVLHQDWLNGKEYKCKVSNKALPKPIEKTISKAKGQPREPQVYTLPPSREEMTKNQVSLTCLVKGFYPSDIAVEWESNGQPENNYKTTPPVLDSDGSFFLYSKLTVDKSRWQQGNVFSCSVMHEALHNHYTQKSLSLSP light: DIVMTQSPATLSLSPGERATLSCTSSQSVYHANWLSWFQQKPGQPPKLLIYWASTLAYGVPSRFSGSGSGTDFTLTISSLQPEDAATYYCAGGYGGGRYAFGQGTKVEIKRTVAAPSVFIFPPSDEQLKSGTASVVCLLNNFYPREAKVQWKVDNALQSGNSQESVTEQDSKDSTYSLSSTLTLSKADYEKHKVYACEVTHQGLSSPVTKSFNRGEC |
